From patent US7279325B2, “Method for identifying antagonist compounds of the estrogen-related receptor 3 (ERR3) by using the x-ray structural coordinates of the ligand binding domain” (priority 2002, dated 2007)
Values belong to the molecule of their own block, whether it stands above or below them.

B1: GST-tagged SRC-1 RID (Receptor Interaction Domain of hSRC-1, amino acids 614-764) (other, not shown: a dimerising Fc or GST)
chain: HNNDRLSDGDSKYSQTSHKLVQLLTTTAEQQLRHADIDTSCKDVLSCTGTSNSASANSSGGSCPSSHSSLTERHKILHRLLQEGSPSDITTLSVEPDKKDSASTSVSVTGQVQGNSSIKLELDASKKKESKDHQLLRYLLDKDEKDLRSTP
notes: also called GST-SRC-1 RID; RID of SRC-1

What was measured:
ERRα = target: T1, ERRα (Homo sapiens, UniProt P11474); settings: micromolar concentrations; Yang and Chen (1999); cited from earlier work
T1 sequence (P11474 1-423): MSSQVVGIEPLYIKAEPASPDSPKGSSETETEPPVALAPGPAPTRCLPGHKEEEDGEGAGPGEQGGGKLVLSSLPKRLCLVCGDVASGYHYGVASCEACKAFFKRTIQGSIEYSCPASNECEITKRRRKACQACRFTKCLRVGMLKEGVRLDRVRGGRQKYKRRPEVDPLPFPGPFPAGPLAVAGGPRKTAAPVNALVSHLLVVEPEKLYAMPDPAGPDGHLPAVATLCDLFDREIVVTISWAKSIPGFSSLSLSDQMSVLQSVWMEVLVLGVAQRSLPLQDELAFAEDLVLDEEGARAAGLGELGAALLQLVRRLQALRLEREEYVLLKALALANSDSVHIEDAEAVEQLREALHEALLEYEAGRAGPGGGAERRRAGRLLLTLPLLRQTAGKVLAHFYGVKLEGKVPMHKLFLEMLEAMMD

[1] = target: T2, His-tagged ERR3 LBD mutant L345I (human (human and murine receptor are …, UniProt P62508 229-458)); assay: native polyacrylamide gradient gel, no ligand
T2 construct: not shown: hexahistidine tag from vector pET-15b
T2 sequence: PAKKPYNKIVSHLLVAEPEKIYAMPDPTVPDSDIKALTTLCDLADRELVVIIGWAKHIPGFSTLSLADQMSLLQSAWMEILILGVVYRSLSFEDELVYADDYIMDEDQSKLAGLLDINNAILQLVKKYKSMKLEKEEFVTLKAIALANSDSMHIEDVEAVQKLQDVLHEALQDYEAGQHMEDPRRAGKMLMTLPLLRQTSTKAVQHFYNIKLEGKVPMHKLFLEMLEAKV
Experimental: (§1) After purification the proteins were dialyzed in assay buffer (20 mM Tris.HCl pH 8.0, 200 mM NaCl), and concentrated. […] Protein complexes were resolved on native polyacrylamide gradient gels (8%-25%) using the Phast System (Pharmacia).
(§2) In vitro interaction assays with the RID (amino acids 617-764) of the coactivator SRC-1 has first been performed. […] Complexes were separated on native polyacrylamide gradient gels.

[2] = target: T3, His-tagged ERR3 LBD mutant F435L (human (human and murine receptor are …, UniProt P62508 229-458)); assay: native polyacrylamide gradient gel, no ligand
T3 construct: also called ERR3(F435L); PHE435LEU; not shown: hexahistidine tag from vector pET-15b
T3 sequence: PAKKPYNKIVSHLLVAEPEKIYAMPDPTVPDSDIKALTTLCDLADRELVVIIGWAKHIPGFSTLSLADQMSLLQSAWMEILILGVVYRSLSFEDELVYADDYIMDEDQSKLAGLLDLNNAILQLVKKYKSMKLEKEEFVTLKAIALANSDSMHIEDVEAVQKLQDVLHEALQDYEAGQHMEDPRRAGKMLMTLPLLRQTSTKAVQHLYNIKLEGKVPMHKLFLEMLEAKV
Experimental: as §1, §2

[3] = target: T4, His-tagged ERR3 LBD mutant A272F (human (human and murine receptor are …, UniProt P62508 229-458)); assay: native polyacrylamide gradient gel, no ligand
T4 construct: also called ERR3(A272F); ALA272PHE; not shown: hexahistidine tag from vector pET-15b
T4 sequence: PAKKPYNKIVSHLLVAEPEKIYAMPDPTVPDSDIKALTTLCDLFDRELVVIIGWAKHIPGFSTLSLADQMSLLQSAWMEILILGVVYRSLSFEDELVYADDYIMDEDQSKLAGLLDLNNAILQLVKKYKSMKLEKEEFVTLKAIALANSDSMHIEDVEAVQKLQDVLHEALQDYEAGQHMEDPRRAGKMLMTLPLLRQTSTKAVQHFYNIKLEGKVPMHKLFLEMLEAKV
Experimental: as §1, §2

[4] = target: T5, His-tagged ERR3 LBD mutant A272L (human (human and murine receptor are …, UniProt P62508 229-458)); assay: native polyacrylamide gradient gel, no ligand
T5 construct: also called ERR3(A272L); ALA272LEU; not shown: hexahistidine tag from vector pET-15b
T5 sequence: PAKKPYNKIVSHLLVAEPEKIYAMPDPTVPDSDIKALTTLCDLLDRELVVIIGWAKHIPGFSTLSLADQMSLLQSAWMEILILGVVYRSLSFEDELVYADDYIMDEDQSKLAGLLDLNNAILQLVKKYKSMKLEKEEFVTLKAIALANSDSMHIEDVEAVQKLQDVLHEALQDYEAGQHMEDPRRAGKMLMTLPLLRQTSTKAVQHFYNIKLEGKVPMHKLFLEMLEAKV
Experimental: as §1, §2

[5] = target: T6, His-tagged ERR3 LBD (wild type; residues 229 to 458 of the Estrogen-Related Receptor 3) (human (human and murine receptor are …, UniProt P62508 229-458); assay: native polyacrylamide gradient gel, no ligand
T6 construct: Expressed in E. coli BL21(DE3); Forms a homodimer in the crystal, in gel filtration and in mass spectrometry; SwissProt O75454 is printed for hERR3; also called wt LBD; wt ERR3; not shown: hexahistidine tag from vector pET-15b
T6 sequence: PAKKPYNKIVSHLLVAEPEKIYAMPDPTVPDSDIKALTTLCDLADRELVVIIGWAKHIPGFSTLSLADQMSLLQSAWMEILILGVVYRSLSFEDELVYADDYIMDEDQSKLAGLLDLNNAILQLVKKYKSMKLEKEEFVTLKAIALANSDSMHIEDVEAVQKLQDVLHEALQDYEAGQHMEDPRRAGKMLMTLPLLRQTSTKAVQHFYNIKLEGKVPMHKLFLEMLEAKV
Experimental: as §1, §2

[6] = target: B1; assay: native polyacrylamide gradient gel, no ligand
Experimental: as §1, §2

[7] = target: T6, His-tagged ERR3 LBD (wild type; …); assay: crystal structure
Excerpt: A.2 Protein Purification, Crystallization, Data Collection and Processing.

Molecule: ClC1=C(Cl)C2(Cl)C3C(Cl)C(Cl)CC3C1(Cl)C2(Cl)Cl (stereo not shown) [chlordane]
ERRα basal activity (ERRα): decrease

Molecule: CC1(C)C(C(Cl)Cl)C2(Cl)C(Cl)C(Cl)C1(Cl)C2(Cl)Cl (stereo not shown) [toxaphene]
ERRα basal activity (ERRα): decrease

Molecule: B1
binding result [1]: binds
binding result [2]: binds
binding result [3]: binds
binding result [4]: binds
binding result [5]: binds

B2: His-tagged ERR3 LBD mutant L345I-F435L-F450L (receptor)
chain: PAKKPYNKIVSHLLVAEPEKIYAMPDPTVPDSDIKALTTLCDLADRELVVIIGWAKHIPGFSTLSLADQMSLLQSAWMEILILGVVYRSLSFEDELVYADDYIMDEDQSKLAGLLDINNAILQLVKKYKSMKLEKEEFVTLKAIALANSDSMHIEDVEAVQKLQDVLHEALQDYEAGQHMEDPRRAGKMLMTLPLLRQTSTKAVQHLYNIKLEGKVPMHKLLLEMLEAKV
notes: also called triple point mutation; not shown: hexahistidine tag from vector pET-15b
binding result [6]: binds

Second part, the molecule after the results:

binding result [6]: binds
B3: His-tagged ERR3 LBD mutant L345I-F435L (receptor)
chain: PAKKPYNKIVSHLLVAEPEKIYAMPDPTVPDSDIKALTTLCDLADRELVVIIGWAKHIPGFSTLSLADQMSLLQSAWMEILILGVVYRSLSFEDELVYADDYIMDEDQSKLAGLLDINNAILQLVKKYKSMKLEKEEFVTLKAIALANSDSMHIEDVEAVQKLQDVLHEALQDYEAGQHMEDPRRAGKMLMTLPLLRQTSTKAVQHLYNIKLEGKVPMHKLFLEMLEAKV
notes: not shown: hexahistidine tag from vector pET-15b

binding result [7]: binds
B4: hSRC-1 peptide (SRC-1 NR box 2, amino acids 686-700) (peptide)
peptide: RHKILHRLLQEGSPS
notes: Contains the second LXXLL motif of the RID of SRC-1; also called SRC-1 NR box 2 peptide
